Results on four molecules are retold here after US20170233472A1 (MacroGenics, published 2017).

The experiment deals with T1, His-tagged soluble human ROR1 (shROR1-His) (human, UniProt Q01973 30-406).
T1 construct: also called ROR1 protein; immobilized ROR1; not shown: His-Tag
Description: SPR (Biacore), diabody captured via anti-E/K-coil, shROR1-His as analyte. The method, then:
The binding kinetics of DART-1 to DART-6, DART-10 to DART-17, DART-20 to DART-33 was investigated using Biacore analysis in which ROR1 protein was passed over immobilized diabodies. Briefly, each diabody construct was captured on immobilized anti-E/K-coil surface and was incubated with shROR1-His at 25 and 100 nM, and the kinetics of binding were determined via Biacore analysis.

T1 sequence (Q01973 30-406): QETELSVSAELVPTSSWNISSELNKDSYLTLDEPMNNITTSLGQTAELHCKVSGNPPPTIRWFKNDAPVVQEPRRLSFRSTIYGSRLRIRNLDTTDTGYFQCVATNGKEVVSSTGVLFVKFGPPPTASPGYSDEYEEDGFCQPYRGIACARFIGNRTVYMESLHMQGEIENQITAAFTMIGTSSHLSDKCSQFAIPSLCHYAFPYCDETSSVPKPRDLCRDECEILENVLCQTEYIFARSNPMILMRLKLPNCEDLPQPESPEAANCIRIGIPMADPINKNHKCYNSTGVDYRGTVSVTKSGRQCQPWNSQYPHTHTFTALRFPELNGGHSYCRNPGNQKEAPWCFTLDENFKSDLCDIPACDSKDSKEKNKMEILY

B1: DART-2 (bispecific antibody)
chain 1: QLVLTQSPSASASLGSSVKLTCTLSSGHKTDTIDWYQQQPGKAPRYLMKLEGSGSYNKGSGVPDRFGSGSSSGADWYLTISSLQSEDEADYYCGTDYPGNYLFGGGTQLTVLGGGGSGGGGEVQLVESGGGLVQPGGSLRLSCAASGFTFSTYAMNWVRQAPGKGLEWVGRIRSKYNNYATYYADSVKGRFTISRDDSKNSLYLQMNSLKTEDTAVYYCVRHGNFGNSYVSWFAYWGQGTLVTVSSGGCGGGKVAALKEKVAALKEKVAALKEKVAALKE
chain 2: QAVVTQEPSLTVSPGGTVTLTCRSSTGAVTTSNYANWVQQKPGQAPRGLIGGTNKRAPWTPARFSGSLLGGKAALTITGAQAEDEADYYCALWYSNLWVFGGGTKLTVLGGGGSGGGGQEQLVESGGGLVQPGGSLRLSCAASGFTFSDYYMSWVRQAPGKGLEWVATIYPSSGKTYYADSVKGRFTISSDNAKNSLYLQMNSLRAEDTAVYYCARDSYADDAALFDIWGQGTTVTVSSGGCGGGEVAALEKEVAALEKEVAALEKEVAALEK
notes: ROR1×CD3 two chain diabody; VL(2): R71W; VH: parental
Regarding B1, binding was characterised by a dissociation constant (Kd) of 1.5 nM and the “fold enhancement of binding relative to DART-1” value is more than 2 fold.

B2: DART-5 (bispecific antibody)
chain 1: QLVLTQSPSASASLGSSVKLTCTLSSGHKTDTIDWYQQQPGKAPRYLMKLEGSGSYSKGSGVPDRFGSGSSSGADRYLTISSLQSEDEADYYCGTDYPGNYLFGGGTQLTVLGGGGSGGGGEVQLVESGGGLVQPGGSLRLSCAASGFTFSTYAMNWVRQAPGKGLEWVGRIRSKYNNYATYYADSVKGRFTISRDDSKNSLYLQMNSLKTEDTAVYYCVRHGNFGNSYVSWFAYWGQGTLVTVSSGGCGGGKVAALKEKVAALKEKVAALKEKVAALKE
chain 2: QAVVTQEPSLTVSPGGTVTLTCRSSTGAVTTSNYANWVQQKPGQAPRGLIGGTNKRAPWTPARFSGSLLGGKAALTITGAQAEDEADYYCALWYSNLWVFGGGTKLTVLGGGGSGGGGQEQLVESGGGLVQPGGSLRLSCAASGFTFSDYYMSWVRQAPGKGLEWVATIYPSSGKTYYADSVKGRFTISSDNAKNSLYLQMNSLRAEDTAVYYCARDSYADDAALFDIWGQGTTVTVSSGGCGGGEVAALEKEVAALEKEVAALEKEVAALEK
notes: ROR1×CD3 two chain diabody; VL(5): N54S; VH: parental
Molecule B2 displayed a Kd of 6 nM.

B3: DART-3 (bispecific antibody)
chain 1: QLVLTQSPSASASLGSSVKLTCTLSSGHKTDTIDWYQQQPGKAPRYLMNLEGSGSYNKGSGVPDRFGSGSSSGADRYLTISSLQSEDEADYYCGTDYPGNYLFGGGTQLTVLGGGGSGGGGEVQLVESGGGLVQPGGSLRLSCAASGFTFSTYAMNWVRQAPGKGLEWVGRIRSKYNNYATYYADSVKGRFTISRDDSKNSLYLQMNSLKTEDTAVYYCVRHGNFGNSYVSWFAYWGQGTLVTVSSGGCGGGKVAALKEKVAALKEKVAALKEKVAALKE
chain 2: QAVVTQEPSLTVSPGGTVTLTCRSSTGAVTTSNYANWVQQKPGQAPRGLIGGTNKRAPWTPARFSGSLLGGKAALTITGAQAEDEADYYCALWYSNLWVFGGGTKLTVLGGGGSGGGGQEQLVESGGGLVQPGGSLRLSCAASGFTFSDYYMSWVRQAPGKGLEWVATIYPSSGKTYYADSVKGRFTISSDNAKNSLYLQMNSLRAEDTAVYYCARDSYADDAALFDIWGQGTTVTVSSGGCGGGEVAALEKEVAALEKEVAALEKEVAALEK
notes: ROR1×CD3 two chain diabody; VL(3): K49N; VH: parental
B3 yielded a Kd of 4 nM.

B4: DART-4 (bispecific antibody)
chain 1: QLVLTQSPSASASLGGSVKLTCTLSSGHKTDTIDWYQQQPGKAPRYLMKLEGSGSYNKGSGVPDRFGSGSSSGADRYLTISSLQSEDEADYYCGTDYPGNYLFGGGTQLTVLGGGGSGGGGEVQLVESGGGLVQPGGSLRLSCAASGFTFSTYAMNWVRQAPGKGLEWVGRIRSKYNNYATYYADSVKGRFTISRDDSKNSLYLQMNSLKTEDTAVYYCVRHGNFGNSYVSWFAYWGQGTLVTVSSGGCGGGKVAALKEKVAALKEKVAALKEKVAALKE
chain 2: QAVVTQEPSLTVSPGGTVTLTCRSSTGAVTTSNYANWVQQKPGQAPRGLIGGTNKRAPWTPARFSGSLLGGKAALTITGAQAEDEADYYCALWYSNLWVFGGGTKLTVLGGGGSGGGGQEQLVESGGGLVQPGGSLRLSCAASGFTFSDYYMSWVRQAPGKGLEWVATIYPSSGKTYYADSVKGRFTISSDNAKNSLYLQMNSLRAEDTAVYYCARDSYADDAALFDIWGQGTTVTVSSGGCGGGEVAALEKEVAALEKEVAALEKEVAALEK
notes: ROR1×CD3 two chain diabody; VL(4): S17G; VH: parental
B4 showed a Kd of 3.7 nM.
